Experimental data taken from publication PMC3010076 (The Journal of Cell Biology, 2010).

Biological target: the molecule itself
Test: rotary-shadowing EM

| Protein | stoichiometry N |
| --- | --- |
| C-terminally TAP-tagged full-length Myo1 (natural protein, S. cerevisiae, UniProt P08964 1-1928, looked up) MTGGQSCSSNMIVWIPDEKEVFVKGELMSTDINKNKFTGQEEQIGIVHPLDSTEVSNLVQVRISDVFPVNPSTFDKVENMSELTHLNEPSVLYNLEKRYDCDLIYTYSGLFLVAINPYHNLNLYSEDHINLYHNKHNRLSKSRLDENSHEKLPPHIFAIAEEAYENLLSEGKDQSILVTGESGAGKTENTKKILQYLASITSGSPSNIAPVSGSSIVESFEMKILQSNPILESFGNAQTVRNNNSSRFGKFIKIEFNEHGMINGAHIEWYLLEKSRIVHQNSKERNYHIFYQLLSGLDDSELKNLRLKSRNVKDYKILSNSNQDIIPGINDVENFKELLSALNIIGFSKDQIRWIFQVVAIILLIGNIEFVSDRAEQASFKNDVSAICSNLGVDEKDFQTAILRPRSKAGKEWVSQSKNSQQAKFILNALSRNLYERLFGYIVDMINKNLDHGSATLNYIGLLDIAGFEIFENNSFEQLCINYTNEKLQQFFNNHMFVLEQSEYLKENIQWDYIDYGKDLQLTIDLIESKGPPTGVLPLLDEEAVLPKSTDESFYSKLISTWDQNSSKFKRSRLKNGFILKHYAGDVEYTVEGWLSKNKDPLNDNLLSLLSSSQNDIISKLFQPEGEKSSSAGVEANISNQEVKKSARTSTFKTTSSRHREQQITLLNQLASTHPHFVRCIIPNNVKKVKTFNRRLILDQLRCNGVLEGIRLAREGYPNRIAFQEFFQRYRILYPENSTTTTFSSKLKASTKQNCEFLLTSLQLDTKVYKIGNTKLFFKAGVLADLEKQKDVKLNNIMIKLTATIRGYTVRKEITYHLQKLKKTRVIGNTFRLYNRLVKEDPWFNLFIRIKPLLTSSNDMTRTKKFNEQINKLKNDLQEMESKKKFLEEKNQKTVNELENTQDLLNQEKENLRKNESLLNRVKTSSETLQKQFDDLVSEKDEISREKLEVAQNLEEAHQKIQGLQETIREREATLEKLHSKNNELIKQISDLNCDISKEQSSQSLIKESKLKLENEIKRLKDVINSKEEEIKSFNDKLSSSEEDLDIKLVTLEKNCNIAMSRLQSLVTENSDLRSKNENFKKEKAALNNQLKNKESELLKMKEKIDNHKKELATFSKQRDDAVSEHGKITAELKETRIQLTEYKSNYQKIKEEYSNFQRETKEQEQKKRNSLVESLNDSKIKELEARLSQEISLNQYLNKRISGNSVETNISSTRRSTSYSDDPLDKEDIIKKYYDLQLAFTEITRNLENEIEEKKNLISRLRFTETRLASSSFEDQKIKAQMKKLKKLIQDMDPSIPLDSILNEPLDNCPDKESDINKLMLEVDYLKRQLDIETRAHYDAENAISALHSKFRKIQGESSLSSSDIYKLKFEASEERVKSLEDKLKTMPLRDRTNLPVGDIIKNRDSISKYEEEIRYYKLENYKLQEILNESNGKLSQLTLDLRQSKSKEALLSEQLDRLQKDLESTERQKELLSSTIKQQKQQFENCMDDLQGNELRLREHIHALKQAEEDVKNMASIIEKLKTQNKQKEKLIWEREMERNDSDMQLQETLLELKRVQDVKKILSDDLAHLKERLSAVEDRSQYTDEINRLKEELNCSLKAETNLKKEFATLKYKLETSTNDSEAKISDLLKQLDHYTKVVEMLNNEKDAISLAEKELYQKYEALNTECESLKGKIVSLTKIKQELESDLNQKTDALQISNAALSSSTQKNKEITEKIKYLEETLQLQMEQNSRNGELVKTLQASCNGYKDKFDDEKQKNIDLYEENQTLQKLNTDLQLQLKNLHERLSDTTEKNAWLSKIHELENMVSLETDLKYEEMKKNKSLERAVEELQTKNSQQTDVIELANKNRSEFEEATLKYEAQISDLEKYISQQELEMKKSIRDNSSYRDKVQEMAQEIEFWKSRYESTMIGSKNIDSNNAQSKIFS | 2 |
| C-terminally TAP-tagged Myo1 with a deletion of the TD2 region (natural protein, S. cerevisiae, UniProt P08964 1-1928, looked up) MTGGQSCSSNMIVWIPDEKEVFVKGELMSTDINKNKFTGQEEQIGIVHPLDSTEVSNLVQVRISDVFPVNPSTFDKVENMSELTHLNEPSVLYNLEKRYDCDLIYTYSGLFLVAINPYHNLNLYSEDHINLYHNKHNRLSKSRLDENSHEKLPPHIFAIAEEAYENLLSEGKDQSILVTGESGAGKTENTKKILQYLASITSGSPSNIAPVSGSSIVESFEMKILQSNPILESFGNAQTVRNNNSSRFGKFIKIEFNEHGMINGAHIEWYLLEKSRIVHQNSKERNYHIFYQLLSGLDDSELKNLRLKSRNVKDYKILSNSNQDIIPGINDVENFKELLSALNIIGFSKDQIRWIFQVVAIILLIGNIEFVSDRAEQASFKNDVSAICSNLGVDEKDFQTAILRPRSKAGKEWVSQSKNSQQAKFILNALSRNLYERLFGYIVDMINKNLDHGSATLNYIGLLDIAGFEIFENNSFEQLCINYTNEKLQQFFNNHMFVLEQSEYLKENIQWDYIDYGKDLQLTIDLIESKGPPTGVLPLLDEEAVLPKSTDESFYSKLISTWDQNSSKFKRSRLKNGFILKHYAGDVEYTVEGWLSKNKDPLNDNLLSLLSSSQNDIISKLFQPEGEKSSSAGVEANISNQEVKKSARTSTFKTTSSRHREQQITLLNQLASTHPHFVRCIIPNNVKKVKTFNRRLILDQLRCNGVLEGIRLAREGYPNRIAFQEFFQRYRILYPENSTTTTFSSKLKASTKQNCEFLLTSLQLDTKVYKIGNTKLFFKAGVLADLEKQKDVKLNNIMIKLTATIRGYTVRKEITYHLQKLKKTRVIGNTFRLYNRLVKEDPWFNLFIRIKPLLTSSNDMTRTKKFNEQINKLKNDLQEMESKKKFLEEKNQKTVNELENTQDLLNQEKENLRKNESLLNRVKTSSETLQKQFDDLVSEKDEISREKLEVAQNLEEAHQKIQGLQETIREREATLEKLHSKNNELIKQISDLNCDISKEQSSQSLIKESKLKLENEIKRLKDVINSKEEEIKSFNDKLSSSEEDLDIKLVTLEKNCNIAMSRLQSLVTENSDLRSKNENFKKEKAALNNQLKNKESELLKMKEKIDNHKKELATFSKQRDDAVSEHGKITAELKETRIQLTEYKSNYQKIKEEYSNFQRETKEQEQKKRNSLVESLNDSKIKELEARLSQEISLNQYLNKRISGNSVETNISSTRRSTSYSDDVGDIIKNRDSISKYEEEIRYYKLENYKLQEILNESNGKLSQLTLDLRQSKSKEALLSEQLDRLQKDLESTERQKELLSSTIKQQKQQFENCMDDLQGNELRLREHIHALKQAEEDVKNMASIIEKLKTQNKQKEKLIWEREMERNDSDMQLQETLLELKRVQDVKKILSDDLAHLKERLSAVEDRSQYTDEINRLKEELNCSLKAETNLKKEFATLKYKLETSTNDSEAKISDLLKQLDHYTKVVEMLNNEKDAISLAEKELYQKYEALNTECESLKGKIVSLTKIKQELESDLNQKTDALQISNAALSSSTQKNKEITEKIKYLEETLQLQMEQNSRNGELVKTLQASCNGYKDKFDDEKQKNIDLYEENQTLQKLNTDLQLQLKNLHERLSDTTEKNAWLSKIHELENMVSLETDLKYEEMKKNKSLERAVEELQTKNSQQTDVIELANKNRSEFEEATLKYEAQISDLEKYISQQELEMKKSIRDNSSYRDKVQEMAQEIEFWKSRYESTMIGSKNIDSNNAQSKIFS | 2 |
| MBP-Myo1-tail-TD2Δ (domain or fragment, S. cerevisiae, UniProt P08964 856-1928, looked up) SSNDMTRTKKFNEQINKLKNDLQEMESKKKFLEEKNQKTVNELENTQDLLNQEKENLRKNESLLNRVKTSSETLQKQFDDLVSEKDEISREKLEVAQNLEEAHQKIQGLQETIREREATLEKLHSKNNELIKQISDLNCDISKEQSSQSLIKESKLKLENEIKRLKDVINSKEEEIKSFNDKLSSSEEDLDIKLVTLEKNCNIAMSRLQSLVTENSDLRSKNENFKKEKAALNNQLKNKESELLKMKEKIDNHKKELATFSKQRDDAVSEHGKITAELKETRIQLTEYKSNYQKIKEEYSNFQRETKEQEQKKRNSLVESLNDSKIKELEARLSQEISLNQYLNKRISGNSVETNISSTRRSTSYSDDVGDIIKNRDSISKYEEEIRYYKLENYKLQEILNESNGKLSQLTLDLRQSKSKEALLSEQLDRLQKDLESTERQKELLSSTIKQQKQQFENCMDDLQGNELRLREHIHALKQAEEDVKNMASIIEKLKTQNKQKEKLIWEREMERNDSDMQLQETLLELKRVQDVKKILSDDLAHLKERLSAVEDRSQYTDEINRLKEELNCSLKAETNLKKEFATLKYKLETSTNDSEAKISDLLKQLDHYTKVVEMLNNEKDAISLAEKELYQKYEALNTECESLKGKIVSLTKIKQELESDLNQKTDALQISNAALSSSTQKNKEITEKIKYLEETLQLQMEQNSRNGELVKTLQASCNGYKDKFDDEKQKNIDLYEENQTLQKLNTDLQLQLKNLHERLSDTTEKNAWLSKIHELENMVSLETDLKYEEMKKNKSLERAVEELQTKNSQQTDVIELANKNRSEFEEATLKYEAQISDLEKYISQQELEMKKSIRDNSSYRDKVQEMAQEIEFWKSRYESTMIGSKNIDSNNAQSKIFS | 2 |
